In patent publication US10618965 (dated 2020):
Substitutions are numbered along the chain they refer to. Like-named read-outs stand apart in the source and are kept apart here.

Assays:
[1] = target: human FcRn (with beta2-microglobulin) (human); assay: SPR, pH 7.0
[2] = target: human FcRn (with beta2-microglobulin) (human); assay: SPR, pH 7.0; remark: listed apart in the source
[3] = target: human FcRn (with beta2-microglobulin) (human); assay: SPR, neutral pH
[4] = target: human FcRn (with beta2-microglobulin) (human); assay: SPR, pH 7.0; remark: listed apart in the source
[5] = target: human FcRn (with beta2-microglobulin) (human); assay: SPR, pH 7.0; remark: listed apart in the source
[6] = target: human FcRn (with beta2-microglobulin) (human); assay: SPR, pH 7.0; remark: listed apart in the source
[7] = target: human FcRn (with beta2-microglobulin) (human); assay: SPR, pH 7.0; remark: listed apart in the source
[8] = target: human FcRn (with beta2-microglobulin) (human); assay: SPR, pH 7.0; remark: listed apart in the source
human FcgRIIb [9] = target: T1, human FcgRIIb (human); assay: SPR
T1 chain: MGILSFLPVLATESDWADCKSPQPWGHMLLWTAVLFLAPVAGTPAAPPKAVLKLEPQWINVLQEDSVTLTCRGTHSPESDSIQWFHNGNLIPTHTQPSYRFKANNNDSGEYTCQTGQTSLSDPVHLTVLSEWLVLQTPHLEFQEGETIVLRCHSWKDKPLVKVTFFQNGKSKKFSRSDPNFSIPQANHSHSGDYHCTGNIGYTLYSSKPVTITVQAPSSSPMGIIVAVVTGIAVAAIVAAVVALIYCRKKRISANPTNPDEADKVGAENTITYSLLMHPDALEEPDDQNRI

human FcgRIIb [10] = target: T1, human FcgRIIb; assay: SPR
human FcgRIIa(R) [11] = target: T2, human FcgRIIa(R) (human); assay: SPR
T2 chain: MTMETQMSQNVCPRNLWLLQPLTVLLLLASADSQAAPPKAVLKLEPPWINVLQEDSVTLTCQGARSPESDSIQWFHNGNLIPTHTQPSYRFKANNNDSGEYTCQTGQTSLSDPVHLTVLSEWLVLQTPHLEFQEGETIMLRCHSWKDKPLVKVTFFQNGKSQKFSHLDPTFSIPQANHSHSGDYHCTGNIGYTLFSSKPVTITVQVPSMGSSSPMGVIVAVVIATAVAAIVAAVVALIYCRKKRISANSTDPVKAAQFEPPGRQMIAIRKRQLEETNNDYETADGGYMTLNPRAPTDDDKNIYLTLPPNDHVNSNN

human FcgRIIb [12] = target: T1, human FcgRIIb; assay: SPR
human FcgRIIIa(V) [13] = target: human FcgRIIIa(V) (human); assay: SPR
Sequence of human FcgRIIIa(V) (human) (chain, as listed by the source): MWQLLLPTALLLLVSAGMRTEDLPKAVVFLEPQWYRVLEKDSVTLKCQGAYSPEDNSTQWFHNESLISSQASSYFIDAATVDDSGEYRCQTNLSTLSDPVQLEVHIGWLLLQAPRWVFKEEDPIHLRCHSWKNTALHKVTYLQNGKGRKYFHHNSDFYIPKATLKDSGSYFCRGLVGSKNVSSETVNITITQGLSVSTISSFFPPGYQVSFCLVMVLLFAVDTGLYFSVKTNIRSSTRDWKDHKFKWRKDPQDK

human FcgRIIa(R) [14] = target: T2, human FcgRIIa(R); assay: SPR
human FcgRIIa(H) [15] = target: T3, human FcgRIIa(H) (human); assay: SPR
T3 chain: T2 chain

human FcgRIIb [16] = target: T1, human FcgRIIb; assay: SPR
human FcgRIIIa(V) [17] = target: human FcgRIIIa(V) (human); assay: SPR; remark: listed apart in the source
human FcgRIIIa(V) [18] = target: human FcgRIIIa(V) (human); assay: SPR; remark: listed apart in the source
human FcgRIIa(H) [19] = target: T3, human FcgRIIa(H); assay: SPR
human FcgRIIb [20] = target: T1, human FcgRIIb; assay: SPR
human FcgRIa [21] = target: human FcgRIa (human); assay: SPR
Sequence of human FcgRIa (human) (chain, as listed by the source): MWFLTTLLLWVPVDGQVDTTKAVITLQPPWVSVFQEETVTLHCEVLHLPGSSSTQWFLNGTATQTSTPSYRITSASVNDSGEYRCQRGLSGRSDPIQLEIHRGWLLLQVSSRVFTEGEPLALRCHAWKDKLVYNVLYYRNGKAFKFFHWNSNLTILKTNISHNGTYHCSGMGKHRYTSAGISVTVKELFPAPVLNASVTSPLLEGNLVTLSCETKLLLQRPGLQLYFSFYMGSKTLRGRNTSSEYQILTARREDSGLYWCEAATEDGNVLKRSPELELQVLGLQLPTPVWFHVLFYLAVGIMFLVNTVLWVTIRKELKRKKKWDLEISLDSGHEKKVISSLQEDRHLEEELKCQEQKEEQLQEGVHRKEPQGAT

human FcgRIIa(R) [22] = target: T2, human FcgRIIa(R); assay: SPR
human FcgRIIa(H) [23] = target: T3, human FcgRIIa(H); assay: SPR
human FcgRIa [24] = target: human FcgRIa (human); assay: SPR; remark: listed apart in the source
human FcgRIa [25] = target: human FcgRIa (human); assay: SPR; remark: listed apart in the source
mouse FcRn = target: T4, mouse FcRn (mouse, UniProt Q61559); assay: SPR, pH 7.0
T4 chain 1: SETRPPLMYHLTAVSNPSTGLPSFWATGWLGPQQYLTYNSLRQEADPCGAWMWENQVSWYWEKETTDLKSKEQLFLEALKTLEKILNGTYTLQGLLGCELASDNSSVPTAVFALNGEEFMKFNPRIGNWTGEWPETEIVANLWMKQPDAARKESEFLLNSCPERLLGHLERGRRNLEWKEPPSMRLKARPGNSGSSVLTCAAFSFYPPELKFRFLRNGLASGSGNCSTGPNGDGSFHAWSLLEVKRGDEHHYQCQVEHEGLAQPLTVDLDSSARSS
T4 chain 2: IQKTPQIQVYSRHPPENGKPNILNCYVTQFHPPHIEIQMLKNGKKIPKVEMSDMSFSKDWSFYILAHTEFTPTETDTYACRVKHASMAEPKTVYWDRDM

Sequence of human FcRn (with beta2-microglobulin) (human) (chain, as listed by the source, chain 1 of 2): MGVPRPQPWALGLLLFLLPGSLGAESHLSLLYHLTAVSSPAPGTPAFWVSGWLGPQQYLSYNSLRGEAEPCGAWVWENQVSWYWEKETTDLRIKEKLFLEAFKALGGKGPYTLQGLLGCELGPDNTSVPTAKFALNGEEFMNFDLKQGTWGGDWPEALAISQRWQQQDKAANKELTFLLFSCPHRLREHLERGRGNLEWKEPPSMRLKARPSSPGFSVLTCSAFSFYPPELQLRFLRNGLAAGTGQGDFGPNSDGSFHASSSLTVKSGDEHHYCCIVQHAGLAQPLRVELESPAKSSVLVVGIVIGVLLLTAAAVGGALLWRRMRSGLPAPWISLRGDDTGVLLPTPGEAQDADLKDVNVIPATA
Sequence of human FcRn (with beta2-microglobulin) (human) (chain, as listed by the source, chain 2 of 2): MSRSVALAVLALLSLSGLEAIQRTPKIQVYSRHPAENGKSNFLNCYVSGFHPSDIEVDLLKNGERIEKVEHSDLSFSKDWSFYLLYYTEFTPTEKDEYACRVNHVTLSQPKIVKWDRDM

B1: IgG1-F140 (antibody)
chain 1: QVQLQESGPGLVKPSETLSLTCAVSGHSISHDHAWSWVRQPPGEGLEWIGFISYSGITNYNPSLQGRVTISRDNSKNTLYLQMNSLRAEDTAVYYCARSLARTTAMDYWGEGTLVTVSSASTKGPSVFPLAPSSKSTSGGTAALGCLVKDYFPEPVTVSWNSGALTSGVHTFPAVLQSSGLYSLSSVVTVPSSSLGTQTYICNVNHKPSNTKVDKKVEPKSCDKTHTCPPCPAPELLGGPKVFLFPPKPKDTLYISRTPEVTCVVVDVSHEDPEVKFNWYVDGVEVHNAKTKPREEQYNSTYRVVSVLTPLHQDWLNGKEYKCKVSNKALPAPIEKTISKAKGQPREPQVYTLPPSRDELTKNQVSLTCLVKGFYPSDIAVEWESNGQPENNYKTTPPVLDSDGSFFLYSKLTVDKSRWQQGNVFSCSVMHEALHYHYTQKSLSLSP
chain 2: not shown
[1]
  Kd: 36 nM
[2]
  Kd: 36 nM

B2: IgG1-F21 (antibody)
chain 1: B1 chain 1 with K241S
chain 2: not shown
[1]
  Kd: 30 nM
[2]
  Kd: 30 nM
[3]
  Kd: 30 nM

B3: IgG1-F763 (antibody)
chain 1: B1 chain 1 with L237R, N288E, T309Q, P310V, Q313A
chain 2: not shown
[4]
  Kd: 35 nM

B4: IgG1-F698 (antibody)
chain 1: B1 chain 1 with K241S, N288E, T309Q, P310V, Q313A
chain 2: not shown
[5]
  Kd: 22 nM
[4]
  Kd: 22 nM

B5: F1326 (antibody)
chain 1: B1 chain 1 with L236A, L237A, K241S, T252V, T309Q, Q313A, Y438V
chain 2: not shown
[6]
  Kd: 11 nM
[7]
  Kd: 11 nM

B6: F947 (antibody)
chain 1: B1 chain 1 with K241S, T252V, T309Q, Q313A, Y438V
chain 2: not shown
[8]
  Kd: 11 nM
[6]
  Kd: 11 nM
[7]
  Kd: 11 nM

B7: IgG1-F699 (antibody)
chain 1: B1 chain 1 with N288E, T309Q, P310V, Q313A
chain 2: not shown
[5]
  Kd: 23 nM

B8: IL6R-G1d/IL6R-L (IgG1) (antibody)
chain 1: not shown
chain 2: DIQMTQSPSSLSASVGDRVTITCRASQDISSYLNWYQQKPGKAPKLLIYYTSRLHSGVPSRFSGSGSGTDFTFTISSLQPEDIATYYCQQGNTLPYTFGQGTKVEIK
Human FcgRIIb [9]
  Kd: 5300 nM
Human FcgRIIb [10]
  Kd: 2600 nM
Human FcgRIIa(R) [11]
  Kd: 1000 nM
Human FcgRIIb [12]
  Kd: 2600 nM
Human FcgRIIIa(V) [13]
  Kd: 350 nM
Human FcgRIIa(R) [14]
  Kd: 1000 nM
Human FcgRIIa(H) [15]
  Kd: 670 nM
Human FcgRIIb [16]
  Kd: 2600 nM
Human FcgRIIIa(V) [17]
  Kd: 350 nM
Human FcgRIIIa(V) [18]
  Kd: 350 nM
Human FcgRIIa(H) [19]
  Kd: 670 nM
Human FcgRIIb [20]
  Kd: 5300 nM
Human FcgRIa [21]
  Kd: 0.32 nM
Human FcgRIIa(R) [22]
  Kd: 1000 nM
Human FcgRIIa(H) [23]
  Kd: 670 nM
Human FcgRIa [24]
  Kd: 0.32 nM
Human FcgRIa [25]
  Kd: 0.32 nM

B9: IL6R-B3/IL6R-L (antibody)
chain 1: not shown
chain 2: B8 chain 2
Human FcgRIIb [10]
  Kd: 3100 nM
Human FcgRIIa(R) [11]
  Kd: 1100 nM
Human FcgRIIb [12]
  Kd: 3100 nM
Human FcgRIIa(R) [14]
  Kd: 1100 nM
Human FcgRIIIa(V) [17]
  Kd: 330 nM
Human FcgRIIIa(V) [18]
  Kd: 330 nM
Human FcgRIIa(H) [19]
  Kd: 770 nM
Human FcgRIa [21]
  Kd: 0.42 nM
Human FcgRIIa(H) [23]
  Kd: 770 nM
Human FcgRIa [24]
  Kd: 0.42 nM

B10: IL6R-F11/IL6R-L (antibody)
chain 1: not shown
chain 2: B8 chain 2
Human FcgRIIa(H) [15]
  Kd: 5000 nM
Human FcgRIIb [16]
  Kd: 6800 nM
Human FcgRIIa(R) [22]
  Kd: 5000 nM
Human FcgRIa [25]
  Kd: 0.9 nM

B11: IL6R-BF648 (antibody)
chain 1: not shown
chain 2: B8 chain 2
Human FcgRIIb [10]
  Kd: 1200 nM
Human FcgRIIa(R) [11]
  Kd: 15000 nM
Human FcgRIIb [12]
  Kd: 1200 nM
Human FcgRIIa(R) [14]
  Kd: 15000 nM
Human FcgRIa [21]
  Kd: 11 nM
Human FcgRIa [24]
  Kd: 11 nM

B12: mF40 (antibody)
chain 1: DVQLQESGPVLVKPSQSLSLTCTVTGYSITSDHAWSWIRQFPGNKLEWMGYISYSGITTYNPSLKSRISITRDTSKNQFFLQLNSVTTGDTSTYYCARSLARTTAMDYWGQGTSVTVSSAKTTPPSVYPLAPGSAAQTNSMVTLGCLVKGYFPEPVTVTWNSGSLSSGVHTFPAVLQSDLYTLSSSVTVPSSTWPSETVTCNVAHPASSTKVDKKIVPRDCGCKPCICTVKEVSKVFIFPPKPKDVLYITLEPKVTCVVVDISKDDPEVQFSWFVDDVEVHTAQTQPREEQFNSTFRSVSELPIMHQDWLNGKEFKCRVNSAAFPAPIEKTISKTKGRPKAPQVYTIPPPKEQMAKDKVSLTCMITDFFPEDITVEWQWNGQPAENYKNTQPIMDTDGSYFVYSKLNVQKSNWEAGNTFTCSVLHEGLHWHHTEKSLSHSPGK
chain 2: not shown
Mouse FcRn
  Kd: 3.2 nM

B13: mF39 (antibody)
chain 1: B12 chain 1 with H429K, W430N
chain 2: not shown
Mouse FcRn
  Kd: 21 nM

B14: mF38 (antibody)
chain 1: B12 chain 1 with K231P, K235S
chain 2: not shown
Mouse FcRn
  Kd: 4 nM
